One may read the stoichiometry N as a count of units in the complex or per binding partner.

Experiment [1] concerns the target Ef-SOD2^Δ (Euplotes focardii Mn superoxide dismutase without its mitochondrial signal peptide) (Euplotes focardii). Put plainly: SEC-MALS; 200 µl of protein (1 mg/ml) on Superose12 10/300 GL; 50 mM sodium phosphate buffer, NaCl 150 mM, pH 7.5. In general terms: Size exclusion chromatography separates by hydrodynamic size, large species first.
Experiment [2] has as its target Ef-SOD1a^Δ (Euplotes focardii Cu,Zn superoxide dismutase 1a without its signal peptide) (Euplotes focardii). Put plainly: SEC; comparison of the SEC chromatographic profiles of Ef-SOD1a and Ef-SOD1b; data not shown.
The target of experiment [3] is Ef-SOD1b (Euplotes focardii Cu,Zn superoxide dismutase 1b) (Euplotes focardii). Briefly: SEC-MALS; 200 µl of protein (1 mg/ml) on Superose12 10/300 GL; 50 mM sodium phosphate buffer, NaCl 150 mM, pH 7.5.

In turn, “Ef-SOD2^Δ (Euplotes focardii Mn superoxide dismutase without its mitochondrial signal peptide) (enzyme)” returned a stoichiometry N in experiment [1] of 4.

“Ef-SOD1a^Δ (Euplotes focardii Cu,Zn superoxide dismutase 1a without its signal peptide) (enzyme)” returned a stoichiometry N in experiment [2] of 2.

For the substance “Ef-SOD1b (Euplotes focardii Cu,Zn superoxide dismutase 1b) (enzyme)”, the stoichiometry N in experiment [3] was determined as 2.

Values taken from publication PMC6170424.
